Laboratory results published in patent US20020147170A1 (priority 2000, published 2002).

Key:
Format in all cases: cell-based
MC-4 receptor [1] = target: T1, MC-4 receptor (Homo sapiens, UniProt P32245, D146M); assay: Basal level cAMP production; conditions: FIG. 2
T1 construct: expressed in transfected cells; host or cells: HEK293
Method: As but one example, ligand-dependent activation of the melanocortin-4 (MC-4) receptor is assayed by measuring an increase in cAMP production (Huszar et al., Cell 88:131-141, (1997)).

MC-4 receptor [2] = target: T1, MC-4 receptor; assay: SMS-Luc luciferase reporter assay in HEK293 cells
Method: Briefly, HEK293 cells were cotransfected, as described above, with an expression vector encoding either the wild-type MC-4 receptor or the Asp146Met mutant MC-4 receptor and the reporter construct, SMS-Luc. As a negative control, cells were transfected with SMS-Luc and pcDNA1. Basal and ligand (αMHS) induced activity of the negative control, the wild-type MC-4 receptor, and the Asp146Met mutant MC-4 receptor were measured using the luciferase assay described above.

rat mu opioid receptor = assay: CRE-Luc luciferase reporter assay with forskolin stimulation; conditions: CRE-Luc luciferase reporter, FIG. 4
Text: The response element employed in this assay was the cAMP-response element (CRE), which is sensitive to Gαi mediated reductions in intracellular levels of cAMP. Signaling through the rat mu opioid receptor via Gαi inhibits adenylate cyclase, causing a decrease in intracellular cellular cAMP. Therefore, an increase in rat mu opioid receptor signaling induces a decrease in CRE mediated reporter activity.
Mutation induced Gαi-mediated decreases in intracellular cAMP were, prior to the present invention, more often measured by 1) stimulating cells with forskolin, which causes receptor-independent activation of adenylate cyclase and generates an intracellular pool of cAMP; 2) stimulating the cells with ligand; and 3) measuring the ligand-induced, receptor-dependent Gαi-mediated decrease in the intracellular cAMP pool (e.g., using a radioimmunoassay (e.g., New England Nuclear, Boston, Mass.)). […] Specifically, cells transfected with a CRE-Luc reporter construct (Stratagene, La Jolla, Calif.) and an expression vector encoding either a wild-type or a mutant rat mu opioid receptor were stimulated with 0.5 μM or 2 μM forskolin to increase the intracellular pool of cAMP. The basal (and ligand-induced) level of receptor activity was then measured using a standard luciferase assay (see FIG. 4). Coexpression of the receptor of interest with a luciferase reporter gene construct allows one to measure light emission as a readout for basal signaling.
This decrease in activity indicates an increase in the basal level activity of the mutant rat mu opioid receptor, because activation of the rat mu opioid receptor induces a decrease in CRE-mediated reporter activity (FIG. 4, compare 0.5 μM wild-type vs. 0.5 μM mutant and 2 μM wild-type vs. 2 μM mutant).

T1 sequence (P32245 whole entry D146M): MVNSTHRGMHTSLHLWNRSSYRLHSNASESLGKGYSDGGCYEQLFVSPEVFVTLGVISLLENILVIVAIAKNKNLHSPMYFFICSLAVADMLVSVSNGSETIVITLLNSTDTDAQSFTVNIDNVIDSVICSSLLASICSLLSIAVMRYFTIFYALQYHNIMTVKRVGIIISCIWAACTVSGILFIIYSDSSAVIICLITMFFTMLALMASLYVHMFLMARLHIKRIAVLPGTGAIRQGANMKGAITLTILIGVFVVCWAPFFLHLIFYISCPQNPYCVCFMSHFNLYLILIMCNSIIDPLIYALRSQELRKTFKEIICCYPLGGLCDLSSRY

Asp146Met mutant MC-4 receptor: melanocortin-4 receptor with Asp at position 146 (DRY motif) replaced by Met
constitutive activity by basal level cAMP production (MC-4 receptor [1]): constitutive activity
basal level activity vs wild-type (MC-4 receptor [2]): higher basal level activity than its wild-type counterpart

C[C@@H](NC(=O)[C@@H](N)Cc1ccc(O)cc1)C(=O)NCC(=O)N(C)[C@@H](Cc1ccccc1)C(=O)NCCO [DAMGO, [D—Ala^2—MePhe^4, Gly-ol^5]enkephalin], reference compound]
effect of agonist stimulation of the receptor on forskolin induced activity (rat mu opioid receptor): decrease in forskolin induced activity
